According to patent US5985836A, “Alpha-1 proteinase inhibitor binding peptides” (Bayer Corporation, priority 1998, dated 1999):
Ends that are not written are not given here.

Biological target: T1, A1PI (Homo sapiens, UniProt P01009)
T1 construct: Human plasma is currently the only approved source of therapeutic AlPI
Assay: A1PI binding on peptide-resin column, injection of 1 mg A1PI in equilibration buffer
Conditions: for Percent AlPI Eluted by Fraction, 1M NaCl / Percent AlPI Eluted by Fraction, 2% Acetic Acid / Percent AlPI Eluted by Fraction, Flowthrough: sequence order, 1 mg AlPI; for % of Total A1PI Eluted by Fraction (Based on Absorbance at 280 nm), 1M NaCl / % of Total A1PI Eluted by Fraction (Based on Absorbance at 280 nm), 2% Acetic Acid / % of Total A1PI Eluted by Fraction (Based on Absorbance at 280 nm), Flowthrough: 1 mg A1PI; for Percent A1PI Eluted by Fraction Based on Absorbance at 280 nm, 1M NaCl / Percent A1PI Eluted by Fraction Based on Absorbance at 280 nm, 2% Acetic Acid / Percent A1PI Eluted by Fraction Based on Absorbance at 280 nm, Flowthrough / Percent A1PI Eluted by Fraction, 1M NaCl / Percent A1PI Eluted by Fraction, 2% Acetic Acid / Percent A1PI Eluted by Fraction, Flowthrough: 1 mg A1PI in equilibration buffer
Description: Confirmatory binding assays were performed in a column chromatographic format on a microbore HPLC using individual peptide sequences synthesized directly onto the Toyopearl 650 M Chelate resin which had been modified with Totda followed by an alanine residue (A-Totda-Toyopearl), at a final substitution density of 0.1 mmole/g resin. The resin was packed into 0.4×5 cm columns (Thomson, Springfield, Va.) and tested on the Michrom HPLC system (Michrom BioResources, Auburn, Calif.). The elution program for all trials utilized the following method. The column was pre-equilibrated with equilibration buffer (as above). 1 ml of sample was injected and allowed sufficient time to flowthrough the column using equilibration buffer. The column was then washed with step elutions of 1M NaCl and 3M NaCl in equilibration buffer. The column was exposed to equilibration buffer with 0.1M NaCl. Any remaining protein was eluted with elution buffer (2% by volume glacial acetic acid in water).
A Gilson FC204 fraction collector at the HPLC outlet collected individual eluates for further analysis. Fractions collected from the 2% acetic acid eluates were neutralized with 2M Tris, pH 10.5 to bring the pH to neutrality. The protein samples were reconstituted in equilibration buffer unless otherwise stated. The samples were analyzed by the integration of the absorbance at 280 nm or by immunonephelometry. The specific method of determination is presented for each figure.
Tables 2 and 3 present the elution profiles for 19 sequences based on the injection of 1 mg AlPI in equilibration buffer at 4° C. and 20° C., respectively. The columns were run at a constant flow rate of865 μl/min (413 cm/hr) or 523 μl/min (250 cm/hr). No dependence of the elution profile with flow rate was found. The Percent AlPI Eluted by Fraction represents the amount eluted in the flowthrough, 1M NaCl wash, and 2% acetic acid fractions relative to the total AlPI eluted. The percentages are based on either the integration of the peak areas at […]

[1] = VIWLVR N-terminal point mutations, 4° C.

T1 sequence (P01009 25-418): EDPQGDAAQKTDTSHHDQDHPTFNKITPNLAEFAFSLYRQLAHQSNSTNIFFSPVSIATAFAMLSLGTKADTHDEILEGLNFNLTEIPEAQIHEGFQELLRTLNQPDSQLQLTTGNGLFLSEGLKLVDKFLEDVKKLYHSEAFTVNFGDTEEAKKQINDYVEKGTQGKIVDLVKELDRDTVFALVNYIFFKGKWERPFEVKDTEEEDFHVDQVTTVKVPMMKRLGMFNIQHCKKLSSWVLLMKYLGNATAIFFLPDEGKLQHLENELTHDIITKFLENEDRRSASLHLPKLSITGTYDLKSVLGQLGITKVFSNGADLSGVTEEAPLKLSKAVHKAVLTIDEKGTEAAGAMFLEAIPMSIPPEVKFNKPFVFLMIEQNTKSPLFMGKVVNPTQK

Ac-RVLFIV: N-terminal acetylated Ac-RVLFIV (listed under SEQ ID No:61)
Percent AlPI Eluted by Fraction, 1M NaCl (4° C.): 11% | Percent AlPI Eluted by Fraction, 2% Acetic Acid (4° C.): 13% | Percent AlPI Eluted by Fraction, Flowthrough (4° C.): 76% | Percent AlPI Eluted by Fraction, 1M NaCl (20° C.): 31% | Percent AlPI Eluted by Fraction, 2% Acetic Acid (20° C.): 50% | Percent AlPI Eluted by Fraction, Flowthrough (20° C.): 19%

Ac-V I F L V R: N-terminal acetylated sequence Ac-VIFLVR (listed under SEQ ID No:37) (not fully specified (C-terminus); printed as Ac-VIFLVR)
% of Total A1PI Eluted by Fraction (Based on Absorbance at 280 nm), 1M NaCl (VIFLVR point mutations, 4° C.): 2% | % of Total A1PI Eluted by Fraction (Based on Absorbance at 280 nm), 2% Acetic Acid (VIFLVR point mutations, 4° C.): 22% | % of Total A1PI Eluted by Fraction (Based on Absorbance at 280 nm), Flowthrough (VIFLVR point mutations, 4° C.): 76% | % of Total A1PI Eluted by Fraction (Based on Absorbance at 280 nm), 1M NaCl (VIFLVR point mutations, 20° C.): 0% | % of Total A1PI Eluted by Fraction (Based on Absorbance at 280 nm), 2% Acetic Acid (VIFLVR point mutations, 20° C.): 0% | % of Total A1PI Eluted by Fraction (Based on Absorbance at 280 nm), Flowthrough (VIFLVR point mutations, 20° C.): 100%

D I F L V R: point mutation of VIFLVR, position 1 (DIFLVR)
% of Total A1PI Eluted by Fraction (Based on Absorbance at 280 nm), 1M NaCl (VIFLVR point mutations, 4° C.): 6% | % of Total A1PI Eluted by Fraction (Based on Absorbance at 280 nm), 2% Acetic Acid (VIFLVR point mutations, 4° C.): 10% | % of Total A1PI Eluted by Fraction (Based on Absorbance at 280 nm), Flowthrough (VIFLVR point mutations, 4° C.): 84% | % of Total A1PI Eluted by Fraction (Based on Absorbance at 280 nm), 1M NaCl (VIFLVR point mutations, 20° C.): 9% | % of Total A1PI Eluted by Fraction (Based on Absorbance at 280 nm), 2% Acetic Acid (VIFLVR point mutations, 20° C.): 21% | % of Total A1PI Eluted by Fraction (Based on Absorbance at 280 nm), Flowthrough (VIFLVR point mutations, 20° C.): 70%

DDWLVR: point mutation of VIWLVR on Ala-Totda-Toyopearl (not fully specified (C-terminus))
% of Total A1PI Eluted by Fraction (Based on Absorbance at 280 nm), 1M NaCl [1]: 0% | % of Total A1PI Eluted by Fraction (Based on Absorbance at 280 nm), 2% Acetic Acid [1]: 1% | % of Total A1PI Eluted by Fraction (Based on Absorbance at 280 nm), Flowthrough [1]: 99%

DHWLVR: point mutation of VIWLVR on Ala-Totda-Toyopearl (not fully specified (C-terminus))
% of Total A1PI Eluted by Fraction (Based on Absorbance at 280 nm), 1M NaCl [1]: 37% | % of Total A1PI Eluted by Fraction (Based on Absorbance at 280 nm), 2% Acetic Acid [1]: 10% | % of Total A1PI Eluted by Fraction (Based on Absorbance at 280 nm), Flowthrough [1]: 53%

DNWLVR: point mutation of VIWLVR on Ala-Totda-Toyopearl (not fully specified (C-terminus))
% of Total A1PI Eluted by Fraction (Based on Absorbance at 280 nm), 1M NaCl [1]: 9% | % of Total A1PI Eluted by Fraction (Based on Absorbance at 280 nm), 2% Acetic Acid [1]: 1% | % of Total A1PI Eluted by Fraction (Based on Absorbance at 280 nm), Flowthrough [1]: 90%

DSWLVR: point mutation of VIWLVR on Ala-Totda-Toyopearl (not fully specified (C-terminus))
% of Total A1PI Eluted by Fraction (Based on Absorbance at 280 nm), 1M NaCl [1]: 10% | % of Total A1PI Eluted by Fraction (Based on Absorbance at 280 nm), 2% Acetic Acid [1]: 0% | % of Total A1PI Eluted by Fraction (Based on Absorbance at 280 nm), Flowthrough [1]: 90%

HDWLVR: point mutation of VIWLVR on Ala-Totda-Toyopearl (not fully specified (C-terminus))
% of Total A1PI Eluted by Fraction (Based on Absorbance at 280 nm), 1M NaCl [1]: 30% | % of Total A1PI Eluted by Fraction (Based on Absorbance at 280 nm), 2% Acetic Acid [1]: 0% | % of Total A1PI Eluted by Fraction (Based on Absorbance at 280 nm), Flowthrough [1]: 70%

HHWLVR: point mutation of VIWLVR on Ala-Totda-Toyopearl (not fully specified (C-terminus))
% of Total A1PI Eluted by Fraction (Based on Absorbance at 280 nm), 1M NaCl [1]: 86% | % of Total A1PI Eluted by Fraction (Based on Absorbance at 280 nm), 2% Acetic Acid [1]: 14% | % of Total A1PI Eluted by Fraction (Based on Absorbance at 280 nm), Flowthrough [1]: 0%

HNWLVR: point mutation of VIWLVR on Ala-Totda-Toyopearl (not fully specified (C-terminus))
% of Total A1PI Eluted by Fraction (Based on Absorbance at 280 nm), 1M NaCl [1]: 92% | % of Total A1PI Eluted by Fraction (Based on Absorbance at 280 nm), 2% Acetic Acid [1]: 8% | % of Total A1PI Eluted by Fraction (Based on Absorbance at 280 nm), Flowthrough [1]: 0%

HSWLVR: point mutation of VIWLVR on Ala-Totda-Toyopearl (not fully specified (C-terminus))
% of Total A1PI Eluted by Fraction (Based on Absorbance at 280 nm), 1M NaCl [1]: 89% | % of Total A1PI Eluted by Fraction (Based on Absorbance at 280 nm), 2% Acetic Acid [1]: 11% | % of Total A1PI Eluted by Fraction (Based on Absorbance at 280 nm), Flowthrough [1]: 0%

IIe Lys Arg Tyr Tyr Leu (IKRYYL)
Percent A1PI Eluted by Fraction Based on Absorbance at 280 nm, 1M NaCl (4° C.): 97% | Percent A1PI Eluted by Fraction Based on Absorbance at 280 nm, 2% Acetic Acid (4° C.): 3% | Percent A1PI Eluted by Fraction Based on Absorbance at 280 nm, Flowthrough (4° C.): 0% | Percent A1PI Eluted by Fraction, 1M NaCl (20° C.): 92% | Percent A1PI Eluted by Fraction, 2% Acetic Acid (20° C.): 8% | Percent A1PI Eluted by Fraction, Flowthrough (20° C.): 0%

IKRYYN
Percent A1PI Eluted by Fraction Based on Absorbance at 280 nm, 1M NaCl (4° C.): 100% | Percent A1PI Eluted by Fraction Based on Absorbance at 280 nm, 2% Acetic Acid (4° C.): 0% | Percent A1PI Eluted by Fraction Based on Absorbance at 280 nm, Flowthrough (4° C.): 0% | Percent A1PI Eluted by Fraction, 1M NaCl (20° C.): 95% | Percent A1PI Eluted by Fraction, 2% Acetic Acid (20° C.): 5% | Percent A1PI Eluted by Fraction, Flowthrough (20° C.): 0%
